In US20240425588A1 (published 2024):

Biological target: Cynomolgus TIGIT
Assay: Biacore

B1: 50C2 Humanized (Hu) (antibody, V domains shown)
VH: QVQLQESGPGLVKPSETLSLTCTVSGFSLTNYNINWIRQPPGKGLEWIGVIWTGGGTNYNSAFMSRVTISKDTSKNQVSLKLSSVTAADTAVYYCVREAYFSNYGFYFDYWGQGTLVTVSS
VL: DIQMTQSPSSLSASVGDRVTITCSASSSISSNYLHWYQQKPGKAPKLLIYRTSNLASGVPSRFSGSGSGTDFTLTISSLQPEDFATYYCQQGSSIPRTFGGGTKVEIK
- Kd: 69.5 nM
